# ± gives the standard deviation of the averaged measurements.
# Experiments:
# [1] = system: hTERT-HMEC; experiment: percentage of EdU-negative (G0-arrested) nuclei per well, 72 h; higher = more G0 arrest; conditions: reference: sequence is the full UniProt precursor, the tested protein was the secreted form or ectodomain
# [2] = system: MCF7; experiment: as above; conditions: reference: sequence is the full UniProt precursor, the tested protein was the secreted form or ectodomain
# [3] = protein concentration 0.0284475 µM
# [4] = protein concentration 0.284475 µM
# [5] = protein concentration 0.0225 µM
# [6] = protein concentration 0.0125 µM
# 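Further: secreted proteins added to cultured cells, EdU pulse at the end, nuclei found by Hoechst imaging, EdU status from nuclear versus surrounding ring intensity ratio, PBS as neutral control.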
sequence,measurement,setting,value
MPRQLSAAAALFASLAVILHDGSQMRAKAFPETRDYSQPTAAATVQDIKKPVQQPAKQAPHQTLAARFMDGHITFQTAATVKIPTTTPATTKNTATTSPITYTLVTTQATPNNSHTAPPVTEVTVGPSLAPYSLPPTITPPAHTTGTSSSTVSHTTGNTTQPSNQTTLPATLSIALHKSTTGQKPVQPTHAPGTTAAAHNTTRTAAPASTVPGPTLAPQPSSVKTGIYQVLNGSRLCIKAEMGIQLIVQDKESVFSPRRYFNIDPNATQASGNCGTRKSNLLLNFQGGFVNLTFTKDEESYYISEVGAYLTVSDPETIYQGIKHAVVMFQTAVGHSFKCVSEQSLQLSAHLQVKTTDVQLQAFDFEDDHFGNVDECSSDYTIVLPVIGAIVVGLCLMGMGVYKIRLRCQSSGYQRI [Q9UQV4],percentage of EdU-negative,[1]; [3],5.03 ± 0.35%
same,percentage of EdU-negative,[1]; [4],5.04 ± 0.52%
same,percentage of EdU-negative,[2]; [3],25.5 ± 0.37%
same,percentage of EdU-negative,[2]; [4],26.2 ± 0.31%
MPRRGYSKPGSWGSFWAMLTLVGLVTHAAQRADVGGEAAGTSINHSQAVLQRLQELLRQGNASDVVLRVQAAGTDEVRVFHAHRLLLGLHSELFLELLSNQSEAVLQEPQDCAAVFDKFIRYLYCGELTVLLTQAIPLHRLATKYGVSSLQRGVADYMRAHLAGGAGPAVGWYHYAVGTGDEALRESCLQFLAWNLSAVAASTEWGAVSPELLWQLLQRSDLVLQDELELFHALEAWLGRARPPPAVAERALRAIRYPMIPPAQLFQLQARSAALARHGPAVADLLLQAYQFHAASPLHYAKFFDVNGSAFLPRNYLAPAWGAPWVINNPARDDRSTSFQTQLGPSGHDAGRRVTWNVLFSPRWLPVSLRPVYADAAGTALPAARPEDGRPRLVVTPASSGGDAAGVSFQKTVLVGARQQGRLLVRHAYSFHQSSEEAGDFLAHADLQRRNSEYLVENALHLHLIVKPVYHTLIRTPK [A6NE02],percentage of EdU-negative,[1]; protein concentration 0.006 µM,5.11 ± 0.82%
same,percentage of EdU-negative,[1]; protein concentration 0.06 µM,10 ± 0.96%
same,percentage of EdU-negative,[2]; protein concentration 0.006 µM,26.7 ± 0.63%
same,percentage of EdU-negative,[2]; protein concentration 0.06 µM,26.1 ± 1.3%
MPRRSLHAAAVLLLVILKEQPSSPAPVNGSKWTYFGPDGENSWSKKYPSCGGLLQSPIDLHSDILQYDASLTPLEFQGYNLSANKQFLLTNNGHSVKLNLPSDMHIQGLQSRYSATQLHLHWGNPNDPHGSEHTVSGQHFAAELHIVHYNSDLYPDASTASNKSEGLAVLAVLIEMGSFNPSYDKIFSHLQHVKYKGQEAFVPGFNIEELLPERTAEYYRYRGSLTTPPCNPTVLWTVFRNPVQISQEQLLALETALYCTHMDDPSPREMINNFRQVQKFDERLVYTSFSQVQVCTAAGLSLGIILSLALAGILGICIVVVVSIWLFRRKSIKKGDNKGVIYKPATKMETEAHA,percentage of EdU-negative,[1]; [5],5.44 ± 1.7%
same,percentage of EdU-negative,[1]; protein concentration 0.225 µM,5.5 ± 1.2%
same,percentage of EdU-negative,[2]; [5],26 ± 0.83%
same,percentage of EdU-negative,[2]; protein concentration 0.225 µM,25.7 ± 0.64%
MPRSCCSRSGALLLALLLQASMEVRGWCLESSQCQDLTTESNLLECIRACKPDLSAETPMFPGNGDEQPLTENPRKYVMGHFRWDRFGRRNSSSSGSSGAGQKREDVSAGEDCGPLPEGGPEPRSDGAKPGPREGKRSYSMEHFRWGKPVGKKRRPVKVYPNGAEDESAEAFPLEFKRELTGQRLREGDGPDGPADDGAGAQADLEHSLLVAAEKKDEGPYRMEHFRWGSPPKDKRYGGFMTSEKSQTPLVTLFKNAIIKNAYKKGE,percentage of EdU-negative,[1]; [6],4.65 ± 0.64%
same,percentage of EdU-negative,[1]; protein concentration 0.125 µM,8.66 ± 0.81%
same,percentage of EdU-negative,[2]; [6],24.3 ± 6.1%
same,percentage of EdU-negative,[2]; protein concentration 0.125 µM,24.787 ± 0.0019%
MPRYGASLRQSCPRSGREQGQDGTAGAPGLLWMGLVLALALALALALALSDSRVLWAPAEAHPLSPQGHPARLHRIVPRLRDVFGWGNLTCPICKGLFTAINLGLKKEPNVARVGSVAIKLCNLLKIAPPAVCQSIVHLFEDDMVEVWRRSVLSPSEACGLLLGSTCGHWDIFSSWNISLPTVPKPPPKPPSPPAPGAPVSRILFLTDLHWDHDYLEGTDPDCADPLCCRRGSGLPPASRPGAGYWGEYSKCDLPLRTLESLLSGLGPAGPFDMVYWTGDIPAHDVWHQTRQDQLRALTTVTALVRKFLGPVPVYPAVGNHESTPVNSFPPPFIEGNHSSRWLYEAMAKAWEPWLPAEALRTLRIGGFYALSPYPGLRLISLNMNFCSRENFWLLINSTDPAGQLQWLVGELQAAEDRGDKVHIIGHIPPGHCLKSWSWNYYRIVARYENTLAAQFFGHTHVDEFEVFYDEETLSRPLAVAFLAPSATTYIGLNPGYRVYQIDGNYSGSSHVVLDHETYILNLTQANIPGAIPHWQLLYRARETYGLPNTLPTAWHNLVYRMRGDMQLFQTFWFLYHKGHPPSEPCGTPCRLATLCAQLSARADSPALCRHLMPDGSLPEAQSLWPRPLFC,percentage of EdU-negative,[1]; [5],4.79 ± 0.51%
same,percentage of EdU-negative,[1]; protein concentration 0.225 µM,5.82 ± 1.2%
same,percentage of EdU-negative,[2]; [5],24.3 ± 1.8%
same,percentage of EdU-negative,[2]; protein concentration 0.225 µM,24.4 ± 1.7%

# From the supplement of paper PMC11316812
